This is an account of results in article PMC9430756, “AhrC Negatively Regulates Streptococcus mutans Arginine Biosynthesis”.

The target in data set [1] is T1, AhrC (Streptococcus mutans UA159) (UniProt Q8DVB1).
T1 sequence: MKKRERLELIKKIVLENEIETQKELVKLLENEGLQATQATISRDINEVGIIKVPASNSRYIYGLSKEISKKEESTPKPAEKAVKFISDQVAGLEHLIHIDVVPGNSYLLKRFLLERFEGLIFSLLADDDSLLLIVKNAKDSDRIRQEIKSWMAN
The experiment in a line: EMSA. Conditions: EMSA: 20 mM Tris-HCl, 100 mM NaCl, 5% glycerol, 30 min on ice, pH not stated; native PAGE in 0.5x TBE at 4 C. Footprinting: DNase I 0.1 Kunitz units/uL, 4 min ….

In data set [2] the target is T2, AhrC (Streptococcus mutans UA159, UniProt Q8DVB1 1-154).
T2 sequence: T1 sequence
Put plainly: EMSA; EMSA: 20 mM Tris-HCl, 100 mM NaCl, 5% glycerol, 30 min on ice, pH not stated; native PAGE in 0.5x TBE at 4 C. Footprinting: DNase I 0.1 Kunitz units/uL, 4 min at 37 C. The following applies: protein: recombinant; tags: 6xHis (pET28a, NotI/XhoI); chain copies: 6; label: FAM. For orientation: In EMSA bound probe runs differently from free probe, usually more slowly.

Data set [3] has as its target T2, AhrC. The experiment in a line: EMSA. The following applies: protein: recombinant; tags: 6xHis (pET28a, NotI/XhoI); chain copies: 6; label: FAM.

With “AATAATTTTGTTATCATGAGTTAAAGTATCTAGTTATAAACTAGGTACTTTTTACATTTTATTCATTTCTAGCTTGACTTATGAATAAATATACGATAAAATAAACAACATCTTTATAAAGGAAGTGAATAAGT (double strand) [argC promoter (argCp)]”, the binding entry in data set [1] is given as “binds”.

B1: argC p1 (dsDNA)
DNA 1: CATTTCTAGCTTGACTTATGAATAAATATACGATAAA
DNA 2: TTTATCGTATATTTATTCATAAGTCAAGCTAGAAATG
Regarding B1, the binding result in the data set with AhrC [2] was “binds”.

B2: argC p1mut (dsDNA)
DNA 1: CATTTCTAGCTTGCCCCCCGACCCCCCATACGATAAA
DNA 2: TTTATCGTATGGGGGGTCGGGGGGCAAGCTAGAAATG
Turning to B2, in the data set with AhrC [3], the binding result is given as “no binding”.
